Patent publication US20260308536A1, “NOVEL URICASE VARIANTS AND METHODS OF USE THEREOF” (priority 2023, published 2026)

Columns and labels:
Assay in all cases: purified protein, by the assay type
Assay type in all cases: biochemical, chimeric pig-baboon
Conditions in all cases: other: role: substrate
[1] = substrate: O=c1[nH]c(=O)c2[nH]c(=O)[nH]c2[nH]1
Procedure: Variants 1 (dURC1) and 3 (dURC3) were identified as possible lead candidates. Besides the mutations according to the library design, i.e., the designed mutations of F75Q; K79N; T83Q; E90H; F96H; I100E; Y105D; V119K; F172Y; L260N; and I262T, dURC3 comprised an off-position amino acid mutation K76N. An off-position amino acid mutation is defined as having a non-designed amino acid at a non-target site. […] Specifically, in the dURC1 backbone, the following mutations were tested separately: L154T; K155D; K155N; L157H; L157T; T159E; T159Q; and S162D; and in the dURC3 backbone, the K155N mutation was tested. […] The characteristics, including yield, activity, melting temperature measured by DSF, temperature at which 50% of normal activity was lost after heating measured by heat stress activity assay, Michaelis-Menten kinetics parameters, of variants 1, 2, 3, and 4 (i.e., dURC1, dURC2, dURC3 and dURC4), as well as the wild type chimeric pig-baboon uricase, are summarized in Table 2. The amino acid sequences of dURC1, dURC2, dURC3 and dURC4 are shown as SEQ ID NO: 1, 2, 3, and 4, respectively.
(§1) The activity of the purified enzymes was quantified by Michaelis Menten kinetic analysis, using the solution phase microplate assay across a range of substrate concentrations (FIG. 4B).

[2] = substrate: O=c1[nH]c(=O)c2[nH]c(=O)[nH]c2[nH]1; remark: listed apart in the source
[3] = substrate: O=c1[nH]c(=O)c2[nH]c(=O)[nH]c2[nH]1; remark: listed apart in the source
Excerpt: The monomeric form of the wild type chimeric pig-baboon uricase comprises the amino acid sequence of SEQ ID NO:5, where threonine is residue #1. The specified mutations in the chimeric pig-baboon uricase variants of this example are indexed to threonine as residue #1, as in SEQ ID NO:5. […] The expression vector pET-26b(+) encodes a His tag containing 6 histidine residues at the C-terminus of the inserted uricase gene.
as §1

[4] = non-PEGylated, pH 10.5, 25° C., Table 2
[5] = purified enzyme, non-linear regression, Table 3, pH 10.5, 25.0 °C

Protein	Km [1, 4]	Km [1, 5]	other results
chimeric pig-baboon uricase variant 1 (dURC1), F75Q/K79E/T83Q/E90H/F96H/I100H/Y105D/V119K/Y127H/F172Y/L260N, SEQ ID NO: 1 (Sus scrofa; … (protein, purified) TYKKNDEVEFVRTGYGKDMIKVLHIQRDGKYHSIKEVATTVQLTLSSKKDYLHGDNSDVIPTDTIKNTVNVLAKQKGIESIEQFAVTICHHFLSSHKHVHRAQVDVEEVPWKRFEKNGKKHVHAFIHTPTGTHFCEVEQIRNGPPVIHSGIKDLKVLKTTQSGFEGFIKDQYTTLPEVKDRCFATQVYCKWRYHQGRDVDFEATWDTVRSIVLQKFAGPYDKGEYSPSVQKTLYDIQVLTLGQVPEIEDMEISLPNIHYNNIDMSKMGLINKEEVLLPLDNPYGKITGTVKRKLSSRL	678 µM	700 ± 100 µM	
chimeric pig-baboon uricase variant 2 (dURC2), F75Q/K79E/T83Q/E90H/F96H/I100H/Y105D/V119K/Y127H/K155N/F172Y/L260N, SEQ ID NO: 2 (Sus scrofa; … (protein, purified) TYKKNDEVEFVRTGYGKDMIKVLHIQRDGKYHSIKEVATTVQLTLSSKKDYLHGDNSDVIPTDTIKNTVNVLAKQKGIESIEQFAVTICHHFLSSHKHVHRAQVDVEEVPWKRFEKNGKKHVHAFIHTPTGTHFCEVEQIRNGPPVIHSGIKDLNVLKTTQSGFEGFIKDQYTTLPEVKDRCFATQVYCKWRYHQGRDVDFEATWDTVRSIVLQKFAGPYDKGEYSPSVQKTLYDIQVLTLGQVPEIEDMEISLPNIHYNNIDMSKMGLINKEEVLLPLDNPYGKITGTVKRKLSSRL	467 µM	470 ± 60 µM	
chimeric pig-baboon uricase variant 3 (dURC3), F75Q/K76N/K79N/T83Q/E90H/F96H/I100E/Y105D/V119K/F172Y/L260N/I262T, SEQ ID NO: 3 (Sus scrofa; … (protein, purified) TYKKNDEVEFVRTGYGKDMIKVLHIQRDGKYHSIKEVATTVQLTLSSKKDYLHGDNSDVIPTDTIKNTVNVLAKQNGINSIEQFAVTICHHFLSSHKHVERAQVDVEEVPWKRFEKNGKKHVHAFIYTPTGTHFCEVEQIRNGPPVIHSGIKDLKVLKTTQSGFEGFIKDQYTTLPEVKDRCFATQVYCKWRYHQGRDVDFEATWDTVRSIVLQKFAGPYDKGEYSPSVQKTLYDIQVLTLGQVPEIEDMEISLPNIHYNNTDMSKMGLINKEEVLLPLDNPYGKITGTVKRKLSSRL			Km [2, 4]: 595 µM; Km [2, 5]: 600 ± 70 µM
chimeric pig-baboon uricase variant 4 (dURC4), F75Q/K76N/K79N/T83Q/E90H/F96H/I100E/Y105D/V119K/K155N/F172Y/L260N/I262T, SEQ ID NO: 4 (Sus scrofa; … (protein, purified) TYKKNDEVEFVRTGYGKDMIKVLHIQRDGKYHSIKEVATTVQLTLSSKKDYLHGDNSDVIPTDTIKNTVNVLAKQNGINSIEQFAVTICHHFLSSHKHVERAQVDVEEVPWKRFEKNGKKHVHAFIYTPTGTHFCEVEQIRNGPPVIHSGIKDLNVLKTTQSGFEGFIKDQYTTLPEVKDRCFATQVYCKWRYHQGRDVDFEATWDTVRSIVLQKFAGPYDKGEYSPSVQKTLYDIQVLTLGQVPEIEDMEISLPNIHYNNTDMSKMGLINKEEVLLPLDNPYGKITGTVKRKLSSRL	347 µM	350 ± 20 µM	
chimeric pig-baboon uricase, wild type, SEQ ID NO: 5 (Sus scrofa; R291K/S46T/T301S) (protein, His6 (C); made in house; host or cells: E. coli) TYKKNDEVEFVRTGYGKDMIKVLHIQRDGKYHSIKEVATTVQLTLSSKKDYLHGDNSDVIPTDTIKNTVNVLAKFKGIKSIETFAVTICEHFLSSFKHVIRAQVYVEEVPWKRFEKNGVKHVHAFIYTPTGTHFCEVEQIRNGPPVIHSGIKDLKVLKTTQSGFEGFIKDQFTTLPEVKDRCFATQVYCKWRYHQGRDVDFEATWDTVRSIVLQKFAGPYDKGEYSPSVQKTLYDIQVLTLGQVPEIEDMEISLPNIHYLNIDMSKMGLINKEEVLLPLDNPYGKITGTVKRKLSSRL			Km [3, 4]: 397 µM; Km [3, 5]: 400 ± 50 µM
